In PMC8786824 (Scientific Reports, 2022):

Molecular target: MERS-CoV RBD (amino acids 367 to 588) of the spike glycoprotein (MERS-CoV, UniProt K9N5Q8)
Experiment: crystal structure
Details: both partners purified

Sequence of MERS-CoV RBD (amino acids 367 to 588) of the spike glycoprotein (K9N5Q8 367-588): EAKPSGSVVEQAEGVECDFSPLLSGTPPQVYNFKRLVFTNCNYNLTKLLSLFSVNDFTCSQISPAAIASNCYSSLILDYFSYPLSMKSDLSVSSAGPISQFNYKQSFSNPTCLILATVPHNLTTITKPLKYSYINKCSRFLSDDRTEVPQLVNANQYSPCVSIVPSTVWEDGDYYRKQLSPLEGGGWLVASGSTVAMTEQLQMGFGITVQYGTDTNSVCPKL

B1: KNIH90-F1 antigen-binding fragment (Fab) (Fab, V domains shown)
VH: QVQLVQSGAEVKRPGSSVKVSCKTSGGTFNNNAINWVRQAPGQGLEWMGGIIPFFGIAKYAQKFQGRVTITADESTSTAYMELSSLRSEDTAVYYCARDLPRESSYGSGSYYTHYYAMDVWGQGTTVTVSS
VL: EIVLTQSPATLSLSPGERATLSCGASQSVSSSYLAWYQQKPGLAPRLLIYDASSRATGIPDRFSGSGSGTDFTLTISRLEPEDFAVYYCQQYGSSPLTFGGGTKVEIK
notes: also called KNIH90-F1 Fab; nAb KNIH90-F1
B1: binds.
